Test results reported in publication PMC4517146, “Enzymatic Enantioselective Decarboxylative Protonation of Heteroaryl Malonates” (Chemistry (Weinheim an Der Bergstrasse, Germany), 2015).

What was measured:
Test in all cases: spectrophotometric decarboxylation kinetics
Assay type in all cases: biochemical, Bordetella bronchiseptica
Conditions in all cases: assay conditions in Supporting Information
[1] = substrate: Cc1ccc(C(O)(C(=O)O)C(=O)O)o1
[2] = substrate: O=C(O)C(C(=O)O)c1ccco1
[3] = substrate: O=C(O)C(O)(C(=O)O)c1cc2ccccc2o1
[4] = substrate: O=C(O)C(O)(C(=O)O)c1ccc2sccc2c1
[5] = substrate: O=C(O)C(O)(C(=O)O)c1cccnc1
[6] = substrate: O=C(O)C(O)(C(=O)O)c1ccco1
[7] = substrate: O=C(O)C(O)(C(=O)O)c1cccs1

B1: aryl/alkenyl malonate decarboxylase (AMDase) (Bordetella bronchiseptica) (protein)
chain: MQQASTPTIGMIVPPAAGLVPADGARLYPDLPFIASGLGLGSVTPEGYDAVIESVVDHARRLQKQGAAVVSLMGTSLSFYRGAAFNAALTVAMREATGLPCTTMSTAVLNGLRALGVRRVALATAYIDDVNERLAAFLAEESLVPTGCRSLGITGVEAMARVDTATLVDLCVRAFEAAPDSDGILLSCGGLLTLDAIPEVERRLGVPVVSSSPAGFWDAVRLAGGGAKARPGYGRLFDES
notes: AMDase, construct details only in Supporting Information
Km [1]: 9.8 ± 2.2 mM
kcat [1]: 37.1 ± 8.8 s⁻¹
kcat/Km [1]: 3800 ± 500 M⁻¹ s⁻¹
Km [2]: 10.1 ± 4.5 mM
Km [3]: 8.2 ± 1.6 mM
kcat [3]: 278 ± 33.9 s⁻¹
kcat/Km [3]: 33900 ± 320 M⁻¹ s⁻¹
Km [4]: 3.1 ± 0.17 mM
kcat [4]: 148 ± 4.6 s⁻¹
kcat/Km [4]: 48300 ± 170 M⁻¹ s⁻¹
Km [5]: 6.4 ± 0.6 mM
kcat [5]: 225 ± 36.3 s⁻¹
kcat/Km [5]: 35300 ± 250 M⁻¹ s⁻¹
Km [6]: 8.6 ± 2.1 mM
kcat [6]: 61.9 ± 6 s⁻¹
kcat/Km [6]: 6400 ± 400 M⁻¹ s⁻¹
Km [7]: 4.3 ± 0.5 mM
kcat [7]: 166 ± 10.6 s⁻¹
kcat/Km [7]: 38600 ± 200 M⁻¹ s⁻¹
